Earlier results, collected in patent publication US20260183395A1, “COMBINED THERAPIES USING IMMUNOMODULATING DRUGS” (ONK THERAPEUTICS LIMITED, priority 2022, published 2026).

What was measured:
DR4 = DR4 (Homo sapiens, UniProt O00220); conditions: surface plasmon resonance; WO 2009/077857
decoy receptor DcR1 = biological target: T1, decoy receptor DcR1 (Homo sapiens, UniProt O14798); conditions: surface plasmon resonance; WO 2009/077857
T1 sequence (O14798 26-236): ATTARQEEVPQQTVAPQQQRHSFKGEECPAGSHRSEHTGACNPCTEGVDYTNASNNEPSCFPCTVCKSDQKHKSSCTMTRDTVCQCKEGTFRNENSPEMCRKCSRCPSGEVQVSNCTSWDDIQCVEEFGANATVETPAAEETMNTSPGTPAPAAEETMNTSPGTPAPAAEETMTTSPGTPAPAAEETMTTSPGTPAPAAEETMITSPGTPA

Kd (DR4): > 2 nM | Kd (decoy receptor DcR1): > 20 nM
Substance: Wildtype TRAIL: Wildtype TRAIL ligand, baseline for the affinity of TRAIL variants/mutants
